Experiments:
[1] = target: HigA2Phd (Vibrio cholerae (globular domain); Phd IDR organism not stated) (UniProt Q9KMA5); assay: ITC; conditions: ITC: 20 mM sodium phosphate pH 7.0, 150 mM NaCl, 1 mM EDTA, 25 or 5 C; EMSA/footprint: 20 mM Tris pH 8, 200 mM NaCl; NMR: 20 mM sodium phosphate pH 6.8, 130 mM …
[2] = target: the molecule itself; assay: crystal structure; HigA2 and the 17 bp operator fragment Opr17 mixed 1:1.2, 250 uM complex; sitting drop vapor diffusion; 0.2 M sodium chloride, 0.1 M Na HEPES pH 7.5, 12% (w/v) PEG 8000
HigA2 [3] = target: T1, HigA2 (Vibrio cholerae, UniProt Q9KMA5); assay: X-ray crystallography; HigA2 dimer; residues 37-104 visible; ITC: 20 mM sodium phosphate pH 7.0, 150 mM NaCl, 1 mM EDTA, 25 or 5 C; EMSA/footprint: 20 mM Tris pH 8, 200 mM NaCl; NMR: 20 mM sodium phosphate pH 6.8, 130 mM; conditions: protein: recombinant; tags: C-terminal His6, uncleavable; chain copies: 2; blunt
HigA2Mut(2-13) = HigA2Mut(2-13) (Vibrio cholerae, UniProt Q9KMA5, N3S;R4A;D5T;L6A;F7S;A8G;E9A;L10T;S11A;A13S); assay: ITC; 5 C; ITC: 20 mM sodium phosphate pH 7.0, 150 mM NaCl, 1 mM EDTA, 25 or 5 C; EMSA/footprint: 20 mM Tris pH 8, 200 mM NaCl; NMR: 20 mM sodium phosphate pH 6.8, 130 mM; conditions: protein: recombinant; tags: C-terminal His6, uncleavable; chain copies: 2
HigA2Mut(14-25) = HigA2Mut(14-25) (Vibrio cholerae, UniProt Q9KMA5, L14S;V15S;E16A;A17T;K18A;Q19S;H20G;S21A;E22T;G23A;K24S;L25S); assay: as above; conditions: protein: recombinant; tags: C-terminal His6, uncleavable; chain copies: 2
HigA2Shuff = HigA2Shuff (Vibrio cholerae, UniProt Q9KMA5, IDR sequence shuffled); assay: as above; conditions: protein: recombinant; tags: C-terminal His6, uncleavable; chain copies: 2
HigA2ΔIDR [4] = target: T2, HigA2ΔIDR (Vibrio cholerae, UniProt Q9KMA5, del1-36); assay: as above; conditions: protein: recombinant; tags: C-terminal His6, uncleavable; chain copies: 2
HigA2 [5] = target: T1, HigA2; assay: as above; conditions: protein: recombinant; tags: C-terminal His6, uncleavable; chain copies: 2
HigA2Mut(26-37) = HigA2Mut(26-37) (Vibrio cholerae, UniProt Q9KMA5, T26S;L27S;K28A;H30A;H31S;V32G;N33A;D34T;V35A;G36S;E37S); assay: as above; conditions: protein: recombinant; tags: C-terminal His6, uncleavable; chain copies: 2
HigA2 [6] = target: T1, HigA2; assay: ITC; 25 C; ITC: 20 mM sodium phosphate pH 7.0, 150 mM NaCl, 1 mM EDTA, 25 or 5 C; EMSA/footprint: 20 mM Tris pH 8, 200 mM NaCl; NMR: 20 mM sodium phosphate pH 6.8, 130 mM; conditions: protein: recombinant; tags: C-terminal His6, uncleavable; chain copies: 2
HigA2ΔIDR [7] = target: T2, HigA2ΔIDR; assay: as above; conditions: protein: recombinant; tags: C-terminal His6, uncleavable; chain copies: 2
HigA2IDR = target: T3, HigA2IDR (Vibrio cholerae, UniProt Q9KMA5); assay: as above; conditions: tags: C-terminal extra W; chain copies: 2
T3 chain: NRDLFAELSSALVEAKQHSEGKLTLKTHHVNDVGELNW

In the case of “ATCTGTACGCTTGGTGCGTACACTT (double strand) [Opr25]”, the Kd [1] is reported as 10000 nM.

B1: HigA2 antitoxin from Vibrio cholerae (full-length, C-terminal histidine tag) (natural protein)
chain: MSNRDLFAELSSALVEAKQHSEGKLTLKTHHVNDVGELNISPDEIVSIREQFNMSRGVFARLLHTSSRTLENWEQGRSVPNGQAVTLLKLVQRHPETLSHIAEL
notes: Antitoxin HigA2 of the higBA2 toxin-antitoxin module, Vibrio cholerae; N-terminal disordered region (residues 2-36) and globular C-terminal HTH domain (residues 37-104); only residues 37-104 are seen in the crystal; The histidine tag is un-cleavable (pET21b, NdeI/XhoI); also called wild-type HigA2; full-length HigA2; not shown: histidine tag, C-terminal, kept
For B1, the “stoichiometry N” value [2] was 2.

B2: Opr17 (dsDNA)
DNA 1: GTACGCTTGGTGCGTAC
DNA 2: GTACGCACCAAGCGTAC
B2: binds (HigA2 [3]).

B3: Opr25 (dsDNA)
DNA 1: ATCTGTACGCTTGGTGCGTACACTT
DNA 2: AAGTGTACGCACCAAGCGTACAGAT
With B3 the Kd (HigA2Mut(2-13)) was 390 ± 130 nM, the Kd (HigA2Mut(14-25)) was 5100 ± 2400 nM and the Kd (HigA2Shuff) was 37000 ± 20000 nM. The Kd (HigA2ΔIDR [4]) was 480 ± 160 nM, the Kd (HigA2 [5]) was 15 ± 3 nM and the binding result (HigA2Mut(26-37)) was “no binding”. The Kd (HigA2 [6]) was 13.8 ± 5.8 nM.

B4: Opr45 (dsDNA)
DNA 1: AATTCTTGCCATCTGTACGCTTGGTGCGTACACTTCCTATATGAA
DNA 2: TTCATATAGGAAGTGTACGCACCAAGCGTACAGATGGCAAGAATT
For B4, the Kd (HigA2ΔIDR [7]) was 400 ± 50 nM, the Kd (HigA2 [6]) was 25.1 ± 5.2 nM and the binding result (HigA2IDR) was “no binding”.

— PMC11006873, “Fuzzy recognition by the prokaryotic transcription factor HigA2 from Vibrio cholerae” (Nature Communications, 2024)
